# T1: Recombinant human laminin-α4 (R&D systems) (human, UniProt Q16363-2 826-1816)
# T1 construct: also called laminin α-4 chain
# T1 sequence (looked up): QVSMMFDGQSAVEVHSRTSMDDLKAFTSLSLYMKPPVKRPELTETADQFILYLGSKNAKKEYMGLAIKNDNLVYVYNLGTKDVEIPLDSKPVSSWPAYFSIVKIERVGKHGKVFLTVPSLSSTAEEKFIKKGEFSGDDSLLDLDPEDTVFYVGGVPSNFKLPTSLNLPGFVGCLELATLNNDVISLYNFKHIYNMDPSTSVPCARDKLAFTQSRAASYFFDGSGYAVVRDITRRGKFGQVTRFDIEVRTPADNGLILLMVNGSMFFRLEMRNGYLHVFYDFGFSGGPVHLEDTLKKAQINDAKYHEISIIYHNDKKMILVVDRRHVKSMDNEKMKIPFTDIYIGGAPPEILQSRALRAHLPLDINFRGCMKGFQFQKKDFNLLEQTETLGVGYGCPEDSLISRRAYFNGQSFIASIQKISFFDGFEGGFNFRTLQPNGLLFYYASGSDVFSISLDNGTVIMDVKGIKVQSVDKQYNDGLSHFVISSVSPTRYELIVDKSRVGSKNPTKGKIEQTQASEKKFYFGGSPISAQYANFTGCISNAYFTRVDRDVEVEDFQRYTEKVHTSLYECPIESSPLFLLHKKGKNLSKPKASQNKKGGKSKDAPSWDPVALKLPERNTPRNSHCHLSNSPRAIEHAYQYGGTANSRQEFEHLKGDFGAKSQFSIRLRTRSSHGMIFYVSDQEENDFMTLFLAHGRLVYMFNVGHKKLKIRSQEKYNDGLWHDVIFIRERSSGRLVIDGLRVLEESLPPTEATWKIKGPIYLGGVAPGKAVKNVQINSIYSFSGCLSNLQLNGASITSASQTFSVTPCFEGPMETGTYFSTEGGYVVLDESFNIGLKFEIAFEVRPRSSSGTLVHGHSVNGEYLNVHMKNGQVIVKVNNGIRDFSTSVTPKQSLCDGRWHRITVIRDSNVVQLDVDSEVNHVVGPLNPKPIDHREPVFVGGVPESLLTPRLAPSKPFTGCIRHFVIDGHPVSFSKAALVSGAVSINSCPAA
# T2: recombinant hMCAM-His (human, UniProt P43121 24-559)
# T2 construct: not shown: His tag
# T2 chain: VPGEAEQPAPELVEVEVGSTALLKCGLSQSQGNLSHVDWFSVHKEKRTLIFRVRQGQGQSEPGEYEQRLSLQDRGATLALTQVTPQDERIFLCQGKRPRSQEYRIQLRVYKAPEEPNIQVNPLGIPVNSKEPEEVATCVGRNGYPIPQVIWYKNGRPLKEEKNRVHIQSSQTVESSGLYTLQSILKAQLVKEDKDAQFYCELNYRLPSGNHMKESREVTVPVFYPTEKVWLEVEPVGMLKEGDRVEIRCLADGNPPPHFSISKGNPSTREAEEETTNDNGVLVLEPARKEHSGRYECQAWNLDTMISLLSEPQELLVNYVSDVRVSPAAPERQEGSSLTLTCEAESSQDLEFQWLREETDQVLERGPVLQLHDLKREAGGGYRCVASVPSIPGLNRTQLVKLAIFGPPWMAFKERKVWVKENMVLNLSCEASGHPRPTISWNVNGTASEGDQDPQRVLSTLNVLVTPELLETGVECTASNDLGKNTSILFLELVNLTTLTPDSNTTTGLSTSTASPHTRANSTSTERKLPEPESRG
# T3: human MCAM (melanoma cell adhesion molecule) expressed on transfected CHO cells (human, UniProt P43121 24-646)
# T3 construct: also called hMCAM; CD146
# T3 chain: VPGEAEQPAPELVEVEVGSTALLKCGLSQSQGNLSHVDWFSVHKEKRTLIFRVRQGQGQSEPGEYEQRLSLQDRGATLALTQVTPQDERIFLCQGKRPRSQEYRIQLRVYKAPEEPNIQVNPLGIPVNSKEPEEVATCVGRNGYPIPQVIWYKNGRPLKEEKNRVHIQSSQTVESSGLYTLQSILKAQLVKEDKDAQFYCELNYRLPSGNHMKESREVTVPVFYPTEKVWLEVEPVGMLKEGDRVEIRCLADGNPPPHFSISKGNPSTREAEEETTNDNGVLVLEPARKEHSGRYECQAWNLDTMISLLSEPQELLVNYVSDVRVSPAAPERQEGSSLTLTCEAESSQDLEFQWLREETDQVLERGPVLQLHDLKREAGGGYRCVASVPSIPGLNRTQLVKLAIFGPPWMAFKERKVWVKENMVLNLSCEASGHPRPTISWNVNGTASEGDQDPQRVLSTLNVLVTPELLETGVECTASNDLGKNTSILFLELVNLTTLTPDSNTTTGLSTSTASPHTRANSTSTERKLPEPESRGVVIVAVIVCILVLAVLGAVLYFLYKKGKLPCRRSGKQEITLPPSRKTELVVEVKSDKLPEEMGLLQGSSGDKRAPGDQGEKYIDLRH
# B1: Recombinant human Fc-tagged MCAM IgG1-2A (human MCAM domains 1 and 2, amino acids 19-242) (Fc fusion)
# chain: PRVAGVPGEAEQPAPELVEVEVGSTALLKCGLSQSQGNLSHVDWFSVHKEKRTLIFRVRQGQGQSEPGEYEQRLSLQDRGATLALTQVTPQDERIFLCQGKRPRSQEYRIQLRVYKAPEEPNIQVNPLGIPVNSKEPEEVATCVGRNGYPIPQVIWYKNGRPLKEEKNRVHIQSSQTVESSGLYTLQSILKAQLVKEDKDAQFYCELNYRLPSGNHMKESREVT
# notes: also called human MCAM IgG1-2A; MCAM Fc domains 1 and 2; not shown: human Fc tag
# B2: chimeric 2107 (antibody, V domains shown)
# VH: QVQLKESGPGLVQSSQTLSLTCTVSGFSLTSNGVSWVRQPPGKGLEWIAAISSGGSTYYNSAFKSRLSISRNTSKSQVLLKMNSLQTEDTGMYFCARHRPFYFDYWGQGVMVTVSS
# VL: DIQVTQSPSLLSASVGDRVTLNCKGSQNIYKSLAWFRLKRGEAPKLLIYDANSLQTGIPSRFSGSGSGTDFTLTITSLQPEDVATYFCQQYYSGYTFGAGTKLELK
# B3: h2120_VH5 + h2120_VL3 (antibody, human IgG1, V domains shown)
# VH: QVTLKESGPVLVKPTETLTLTCTVSGFSLTSNAVSWVRQPPGKALEWIAAISSGGTTYYNSAFKSRLTISRDTSKSQVVLTMTNMDPVDTATYYCARRYGYGWYFDFWGQGTLVTVSS
# VL: DIQMTQSPSSLSASVGDRVTINCKASQNIYNSLAWYQQKPGKAPKVLIFNANSLQTGIPSRFSGSGSGTDFTLTISSLQPEDFATYYCQQFYSGYTFGQGTKLEIK
# notes: also called h2120VH5VL3; VH5VL3
# Tests used:
# [1] = molecular target: T4, recombinant human laminin 411 (Biolamina) (human, UniProt Q16363 25-1823; P07942 22-1786; P11047 34-1609); test: SPR, Biacore T200, Fc-tagged MCAM IgG1-2A captured by anti-Fc, laminin 411 as analyte, steady state
# T4 construct: also called laminin 8
# Experimental: (§1) The binding affinity of the human laminin-α4 to human MCAM IgG1-2A was measured by Surface Plasmon Resonance on a Biacore T200 machine. Human Fc-specific F(ab′)₂ IgG (Jackson Laboratories) was immobilized on a CM5 chip using amine coupling. The four flow cells of the CM5 chips dextran surface are activated by a 7 min injection of freshly prepared 1:1 50 mM NHS: EDC at a flow rate of 5 μl/min. 70 μl IgG solution (pH 4.5) was injected for 3 min to a density of up to 3 000 RU. The coupling is then blocked by a 7 min injection of 1M ethanolamine to deactivate residual reactive sites. Recombinant human Fc-tagged MCAM IgG1-2A in degassed and filtered HBS-P buffer containing 12 mg/ml BSA and 12 mg/ml carboxy-methylated dextran sodium salt was captured by anti-Fc IgG to a capture level 1560 RU. Recombinant human Fc-tagged MCAM IgG1-2A was centrifuged at 14 000 rpm for 5 min at 4° C. before injection for 20 min at a flow rate of 5 μl/min over the anti-Fc IgG containing surface. Flow cell 1 was left free of IgG to serve as a control surface. One flow cell was used to capture recombinant human IgG1 Fc (R&D systems) to serve as a negative control. […] Buffer injections served as negative control. Data evaluation: Data from the buffer injections and the control surface were subtracted to remove artifacts. […]
# [2] = molecular target: T1, Recombinant human laminin-α4 (R&D …); test: SPR, Biacore T200, Fc-tagged MCAM IgG1-2A captured by anti-Fc, laminin-α4 as analyte, 1:1 model
# Experimental: as §1
# [3] = molecular target: T5, recombinant human laminin 511 (Biolamina) (human, UniProt O15230 36-3695; P07942 22-1786; P11047 34-1609); test: SPR, Biacore T200
# T5 construct: negative control; also called laminin 10 (α5β1γ1)
# recombinant hMCAM-His [4] = molecular target: T2, recombinant hMCAM-His; test: competitive ELISA on hMCAM-His, competitor biotinylated rodent or chimeric 2107; Expt. #2; vs rodent 2107
# Experimental: (§2) ELISA plates were coated with recombinant hMCAM-His, and blocked with casein buffer to prevent non-specific binding. Biotinylated rodent or chimeric antibody was added at a subsaturating concentration, in the presence or absence of 3× increasing concentrations of unlabeled competitor (humanized antibody, rodent, or chimeric). After washing to remove unbound antibody, streptavidin HRP was added to allow detection of the biotinylated antibody. The ELISA was developed with TMB substrate and the OD450 was measured. The IC50 of the unlabeled competitor was determined using the GraphPad Prism5 software.
# recombinant hMCAM-His [5] = molecular target: T2, recombinant hMCAM-His; test: competitive ELISA on hMCAM-His, competitor biotinylated rodent or chimeric 2107; Expt. #1; vs rodent 2107
# How it was run: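 Plates coated with recombinant hMCAM-His and casein-blocked; biotinylated rodent or chimeric antibody at subsaturating level competed by 3× serial concentrations of unlabeled humanized, rodent or chimeric antibody. Bound biotinylated antibody detected with streptavidin-HRP/TMB at OD450; competitor IC50 fitted.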
# [6] = molecular target: T3, human MCAM (melanoma cell adhesion …); test: laminin/FACS on hMCAM CHO cells, competitor laminin 411; Expt#2; seems to serve as the reference of the 2107 family in this column
# recombinant hMCAM-His [7] = molecular target: T2, recombinant hMCAM-His; test: ForteBio Octet Red, hMCAM-His analyte; Forte column 1; vs rodent 2120
# Experimental: (§3) The affinities were measured using the ForteBio Octet Red. Anti-human Fc sensors were used to capture the humanized antibodies, and several concentrations of hMCAMHis analyte were used to determine the affinity using a 1:1 fitting model.
# [8] = molecular target: T3, human MCAM (melanoma cell adhesion …); test: laminin/FACS blocking assay, % inhibition of laminin 411 binding to hMCAM-expressing CHO cells against antibody concentration; blocked ligand: laminin 411
# Experimental: (§4) Following incubation for 30-45 minutes, the cells were washed and anti-laminin conjugated to AF650 (NovusBio) was added to detect the bound laminin. The cells were run on a flow cytometer to measure the laminin binding signal.
# recombinant hMCAM-His [9] = molecular target: T2, recombinant hMCAM-His; test: summary of ForteBio and competitive ELISA on hMCAM-His; vs rodent 2120
# Experimental: as §2, §3
# [10] = molecular target: T3, human MCAM (melanoma cell adhesion …); test: summary of laminin blocking assay on hMCAM CHO cells, competitor laminin 411; vs rodent 2120
# Experimental: as §4
# recombinant hMCAM-His [11] = molecular target: T2, recombinant hMCAM-His; test: competitive ELISA on hMCAM-His, competitor biotinylated rodent or chimeric 2120; vs rodent 2120
# Experimental: as §2
# [12] = molecular target: T3, human MCAM (melanoma cell adhesion …); test: laminin/FACS on hMCAM CHO cells, competitor laminin 411; Expt#1; vs rodent 2120
# Experimental: as §4
# recombinant hMCAM-His [13] = molecular target: T2, recombinant hMCAM-His; test: ForteBio Octet Red, hMCAM-His analyte; Forte column 2; vs rodent 2120
# Experimental: as §3
# [14] = molecular target: T3, human MCAM (melanoma cell adhesion …); test: laminin/FACS on hMCAM CHO cells, competitor laminin 411; Expt#2; vs rodent 2120
# Experimental: as §4
# T4 sequence (P07942 22-1786, chain 2 of 2): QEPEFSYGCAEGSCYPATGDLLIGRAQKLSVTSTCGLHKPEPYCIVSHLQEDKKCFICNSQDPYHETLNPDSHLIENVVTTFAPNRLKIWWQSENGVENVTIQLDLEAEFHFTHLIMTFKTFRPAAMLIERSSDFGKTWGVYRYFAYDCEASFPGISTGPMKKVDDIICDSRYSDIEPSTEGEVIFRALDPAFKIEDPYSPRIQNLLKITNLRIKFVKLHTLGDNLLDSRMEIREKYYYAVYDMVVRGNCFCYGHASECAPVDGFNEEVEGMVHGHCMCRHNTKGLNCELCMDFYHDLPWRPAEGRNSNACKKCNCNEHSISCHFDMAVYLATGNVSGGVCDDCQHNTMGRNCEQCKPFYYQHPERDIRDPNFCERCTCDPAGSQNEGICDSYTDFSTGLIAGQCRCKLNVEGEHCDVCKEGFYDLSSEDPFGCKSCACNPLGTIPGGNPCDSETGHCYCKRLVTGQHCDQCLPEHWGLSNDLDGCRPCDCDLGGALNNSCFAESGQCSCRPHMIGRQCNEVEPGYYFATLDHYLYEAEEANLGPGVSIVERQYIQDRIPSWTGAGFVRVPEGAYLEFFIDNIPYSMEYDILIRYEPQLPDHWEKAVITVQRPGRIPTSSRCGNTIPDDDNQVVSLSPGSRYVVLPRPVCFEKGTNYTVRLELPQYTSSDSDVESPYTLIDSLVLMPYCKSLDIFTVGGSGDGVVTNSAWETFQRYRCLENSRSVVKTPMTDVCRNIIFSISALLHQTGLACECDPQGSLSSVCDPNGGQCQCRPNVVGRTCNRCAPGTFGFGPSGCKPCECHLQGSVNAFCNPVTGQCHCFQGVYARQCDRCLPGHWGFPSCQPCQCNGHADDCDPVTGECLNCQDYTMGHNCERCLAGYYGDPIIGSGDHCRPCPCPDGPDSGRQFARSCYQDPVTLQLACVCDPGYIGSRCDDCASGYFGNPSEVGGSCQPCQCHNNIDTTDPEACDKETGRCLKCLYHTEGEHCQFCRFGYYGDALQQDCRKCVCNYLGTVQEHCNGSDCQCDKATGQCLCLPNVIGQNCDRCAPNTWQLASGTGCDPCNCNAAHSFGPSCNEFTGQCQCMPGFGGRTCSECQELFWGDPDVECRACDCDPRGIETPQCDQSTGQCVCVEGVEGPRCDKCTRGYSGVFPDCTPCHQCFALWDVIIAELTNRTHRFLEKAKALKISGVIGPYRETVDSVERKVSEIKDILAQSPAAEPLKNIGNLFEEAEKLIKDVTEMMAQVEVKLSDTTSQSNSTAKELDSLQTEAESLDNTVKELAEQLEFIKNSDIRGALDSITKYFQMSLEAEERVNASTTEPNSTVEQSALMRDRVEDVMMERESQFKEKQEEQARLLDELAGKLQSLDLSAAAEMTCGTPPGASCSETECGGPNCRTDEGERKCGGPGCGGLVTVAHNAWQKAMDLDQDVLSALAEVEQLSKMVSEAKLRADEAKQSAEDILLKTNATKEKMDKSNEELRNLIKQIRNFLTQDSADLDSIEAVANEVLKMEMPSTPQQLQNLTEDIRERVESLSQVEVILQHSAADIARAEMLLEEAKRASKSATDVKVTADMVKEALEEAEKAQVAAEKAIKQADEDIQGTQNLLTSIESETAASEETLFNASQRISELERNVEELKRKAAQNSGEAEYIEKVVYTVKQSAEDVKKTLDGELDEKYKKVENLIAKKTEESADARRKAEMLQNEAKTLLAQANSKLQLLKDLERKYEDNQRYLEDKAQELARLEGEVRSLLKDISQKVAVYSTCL
# T4 sequence (P11047 34-1609, chain 3 of 2): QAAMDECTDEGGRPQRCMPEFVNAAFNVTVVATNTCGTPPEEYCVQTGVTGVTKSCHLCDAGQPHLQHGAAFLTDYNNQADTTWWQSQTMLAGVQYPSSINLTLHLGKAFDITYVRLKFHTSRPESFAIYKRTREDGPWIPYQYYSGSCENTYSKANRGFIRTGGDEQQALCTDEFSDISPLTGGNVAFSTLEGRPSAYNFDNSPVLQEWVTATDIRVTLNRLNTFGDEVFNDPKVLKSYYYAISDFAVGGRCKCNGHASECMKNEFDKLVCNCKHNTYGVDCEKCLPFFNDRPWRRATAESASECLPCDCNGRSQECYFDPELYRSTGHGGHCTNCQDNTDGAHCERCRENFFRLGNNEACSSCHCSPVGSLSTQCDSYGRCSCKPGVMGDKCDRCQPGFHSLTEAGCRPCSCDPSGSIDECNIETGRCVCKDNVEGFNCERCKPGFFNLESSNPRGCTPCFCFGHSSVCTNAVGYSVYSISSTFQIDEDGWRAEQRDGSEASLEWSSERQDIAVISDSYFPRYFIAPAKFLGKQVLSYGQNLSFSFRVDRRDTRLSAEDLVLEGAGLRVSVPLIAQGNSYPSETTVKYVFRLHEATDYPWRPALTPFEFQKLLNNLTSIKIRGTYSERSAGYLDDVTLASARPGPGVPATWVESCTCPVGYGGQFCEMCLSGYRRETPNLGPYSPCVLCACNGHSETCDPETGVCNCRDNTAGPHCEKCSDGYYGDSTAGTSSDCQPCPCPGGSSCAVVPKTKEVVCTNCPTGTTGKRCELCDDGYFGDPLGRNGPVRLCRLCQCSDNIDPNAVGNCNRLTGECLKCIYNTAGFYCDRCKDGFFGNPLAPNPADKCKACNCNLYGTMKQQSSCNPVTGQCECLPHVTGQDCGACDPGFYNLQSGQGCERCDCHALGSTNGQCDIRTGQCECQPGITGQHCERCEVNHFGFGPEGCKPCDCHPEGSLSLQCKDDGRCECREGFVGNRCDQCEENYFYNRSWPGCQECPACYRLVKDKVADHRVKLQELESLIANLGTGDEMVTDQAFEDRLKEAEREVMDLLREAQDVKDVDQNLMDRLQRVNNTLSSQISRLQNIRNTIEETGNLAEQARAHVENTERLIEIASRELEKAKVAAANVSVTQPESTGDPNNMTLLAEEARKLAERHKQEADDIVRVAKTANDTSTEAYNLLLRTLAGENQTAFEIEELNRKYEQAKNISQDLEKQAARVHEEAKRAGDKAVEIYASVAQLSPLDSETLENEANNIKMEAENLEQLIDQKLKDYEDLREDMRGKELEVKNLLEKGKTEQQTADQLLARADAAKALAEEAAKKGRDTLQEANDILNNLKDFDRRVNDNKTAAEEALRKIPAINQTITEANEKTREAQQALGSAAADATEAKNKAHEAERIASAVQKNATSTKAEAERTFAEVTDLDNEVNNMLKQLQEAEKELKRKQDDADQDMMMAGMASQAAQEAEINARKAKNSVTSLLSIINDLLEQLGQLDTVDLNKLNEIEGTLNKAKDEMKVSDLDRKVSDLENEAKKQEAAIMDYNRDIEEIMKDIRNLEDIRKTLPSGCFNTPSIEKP
binder,measurement,setting,value
B1,Kd,[1],66 nM
same,Kd,[2],60 nM
same,binding result,[3],no binding (tested: 5-175 nM)
B2,fold over rodent (competitive ELISA),recombinant hMCAM-His [4],1.01 fold
same,fold over rodent (competitive ELISA),recombinant hMCAM-His [5],0.68 fold
same,"fold over rodent (blocking, laminin/FACS)",[6],1 fold
B3,fold over rodent (Forte affinity),recombinant hMCAM-His [7],1.1 fold
same,IC50 (read off the curve),[8],~0.6 µg/mL
same,fold reduction in affinity compared to the rodent,recombinant hMCAM-His [9],< 2 fold
same,fold reduction in potency compared to the rodent,[10],< 2 fold
same,fold over rodent (competitive ELISA),recombinant hMCAM-His [11],2.4 fold
same,"fold over rodent (blocking, laminin/FACS)",[12],1.2 fold
same,fold over rodent (Forte affinity),recombinant hMCAM-His [13],1.2 fold
same,"fold over rodent (blocking, laminin/FACS)",[14],1.5 fold

# Source: patent publication US20150239980A1 (NEOTOPE BOSCIENCES, published 2015)
